Here are results for one molecule from publication PMC8190030.

Common to all, as to settings: remark: other sources report otherwise
For test [1], the target named is T1, N- (neural) cadherin of human fibroblasts (human (endogenous in primary fibroblasts)), P19022.
T1 chain: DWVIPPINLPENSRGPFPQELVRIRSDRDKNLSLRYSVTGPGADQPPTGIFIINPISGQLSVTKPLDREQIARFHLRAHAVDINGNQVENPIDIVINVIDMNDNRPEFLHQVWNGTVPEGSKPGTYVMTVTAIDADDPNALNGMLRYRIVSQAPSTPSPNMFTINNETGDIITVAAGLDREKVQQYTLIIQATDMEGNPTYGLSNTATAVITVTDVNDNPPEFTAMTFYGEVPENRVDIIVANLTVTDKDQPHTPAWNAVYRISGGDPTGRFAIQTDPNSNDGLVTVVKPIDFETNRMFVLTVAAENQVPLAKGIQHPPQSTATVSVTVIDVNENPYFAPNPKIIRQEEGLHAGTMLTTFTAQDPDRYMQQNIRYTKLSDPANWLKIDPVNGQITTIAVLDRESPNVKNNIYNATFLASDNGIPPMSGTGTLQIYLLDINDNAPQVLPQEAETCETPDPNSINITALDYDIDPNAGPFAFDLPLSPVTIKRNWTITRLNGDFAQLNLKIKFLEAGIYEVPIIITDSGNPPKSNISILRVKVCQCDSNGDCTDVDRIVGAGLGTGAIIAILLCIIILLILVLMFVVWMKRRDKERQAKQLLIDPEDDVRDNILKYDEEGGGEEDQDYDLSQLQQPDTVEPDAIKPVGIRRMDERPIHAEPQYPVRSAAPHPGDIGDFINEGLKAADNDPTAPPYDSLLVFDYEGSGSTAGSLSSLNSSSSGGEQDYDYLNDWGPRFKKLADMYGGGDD
Kind of test: AFM single-cell force spectroscopy; control of the drug series (no drug and no DMSO); cell on cantilever against cell monolayer; velocity not stated for this series.

Test [2] deals with T1, N- (neural) cadherin of human …. Kind of test: AFM single-cell force spectroscopy; as a1, approach and retract velocity 7.5 µm/sec.
Test [3] has the same target. Kind of test: AFM single-cell force spectroscopy; DMSO control of the drug series; cell on cantilever against cell monolayer.
Test [4] shares this target. The test can be described thus: AFM single-cell force spectroscopy; as a1, approach and retract velocity 10 µm/sec.
Test [5] has the same target. Kind of test: AFM single-cell force spectroscopy; as a1, approach and retract velocity 5 µm/sec.
Test [6] shares this target. The test can be described thus: AFM single-cell force spectroscopy; with 5 µM cytochalasin D (actin filaments disassembled); cell on cantilever against cell monolayer.
Test [7] shares this target. The test can be described thus: AFM single-cell force spectroscopy; living cell on a conA-coated tipless cantilever against a cell monolayer in a Petri dish; approach and retract velocity 3 µm/sec, maximum loading force 3 nN, contact time 2 s; 5% CO2; cadherin type assigned from immunofluorescence.
Test [8] shares this target. The test can be described thus: AFM single-cell force spectroscopy; with 5 µM ML-7 (myosin light chain kinase inhibited); cell on cantilever against cell monolayer.
Test [9] has the same target. The test can be described thus: AFM single-cell force spectroscopy; DMSO control of the drug series; cell on cantilever against cell monolayer.
For test [10] the target is unchanged. The test can be described thus: AFM single-cell force spectroscopy; control of the drug series (no drug and no DMSO); cell on cantilever against cell monolayer; velocity not stated for this series.

B1: N- (neural) cadherin of human fibroblasts, P19022 160-906 (natural protein)
chain: DWVIPPINLPENSRGPFPQELVRIRSDRDKNLSLRYSVTGPGADQPPTGIFIINPISGQLSVTKPLDREQIARFHLRAHAVDINGNQVENPIDIVINVIDMNDNRPEFLHQVWNGTVPEGSKPGTYVMTVTAIDADDPNALNGMLRYRIVSQAPSTPSPNMFTINNETGDIITVAAGLDREKVQQYTLIIQATDMEGNPTYGLSNTATAVITVTDVNDNPPEFTAMTFYGEVPENRVDIIVANLTVTDKDQPHTPAWNAVYRISGGDPTGRFAIQTDPNSNDGLVTVVKPIDFETNRMFVLTVAAENQVPLAKGIQHPPQSTATVSVTVIDVNENPYFAPNPKIIRQEEGLHAGTMLTTFTAQDPDRYMQQNIRYTKLSDPANWLKIDPVNGQITTIAVLDRESPNVKNNIYNATFLASDNGIPPMSGTGTLQIYLLDINDNAPQVLPQEAETCETPDPNSINITALDYDIDPNAGPFAFDLPLSPVTIKRNWTITRLNGDFAQLNLKIKFLEAGIYEVPIIITDSGNPPKSNISILRVKVCQCDSNGDCTDVDRIVGAGLGTGAIIAILLCIIILLILVLMFVVWMKRRDKERQAKQLLIDPEDDVRDNILKYDEEGGGEEDQDYDLSQLQQPDTVEPDAIKPVGIRRMDERPIHAEPQYPVRSAAPHPGDIGDFINEGLKAADNDPTAPPYDSLLVFDYEGSGSTAGSLSSLNSSSSGGEQDYDYLNDWGPRFKKLADMYGGGDD
In the case of B1, the median rupture force (NF–NF cells) in test [1] is 58.8 pN; in [2] it was 97.2 pN; in [3], 52 pN; in test [4] it was 117 pN; in test [5], 73.4 pN; in [6] it was 31.1 pN. The median rupture force (NF–NF cells) in test [7] was determined as 51.9 pN; in test [8], 48.9 pN; in test [9], 60.2 pN; in test [10] it was 61.9 pN. The median rupture force (SF–SF cells) in [1] was 66.2 pN; in test [2], 103 pN; in test [3] it was 53.1 pN; in [4], 129 pN; in test [5], 74.2 pN; in [6] it was 30.5 pN. Further, the median rupture force (SF–SF cells) turned out to be 45.2 pN in [7], 49 pN in [8], 48.3 pN in [9] and 58.4 pN in test [10].
